From article PMC12416549 (2024)
Numbering of substitutions follows the chain as printed. In names and notes the source's numbering stands.

T1: TNFR1 (Homo sapiens, UniProt P19438)
T1 chain: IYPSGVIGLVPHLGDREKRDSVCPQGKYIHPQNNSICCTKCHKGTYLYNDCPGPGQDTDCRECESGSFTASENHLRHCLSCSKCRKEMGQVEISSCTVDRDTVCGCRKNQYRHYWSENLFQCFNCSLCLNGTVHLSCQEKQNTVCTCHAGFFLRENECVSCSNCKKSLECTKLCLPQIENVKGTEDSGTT

B1: H24P (designed binder)
chain: SMEEEVEKAAKEYEKKKKEAIEKPLEKLKAKDKEAAERFLKELEEAAKEYAKDEAKTMSEEEAKRRAKKYKEKVLLSELSEEEQKEIKEAEEKLVRTILKYVEEAAK
B2: L76A (designed binder)
chain: B1 chain with P24H, L76A
B3: Y50G (designed binder)
chain: B1 chain with P24H, Y50G
B4: K73C (designed binder)
chain: B1 chain with P24H, K73C
B5: H24D (designed binder)
chain: B1 chain with P24D
B6: I87R (designed binder)
chain: B1 chain with P24H, I87R
B7: A36P (designed binder)
chain: B1 chain with P24H, A36P
B8: R66V (designed binder)
chain: B1 chain with P24H, R66V
B9: E86W (designed binder)
chain: B1 chain with P24H, E86W
B10: E4I (designed binder)
chain: B1 chain with E4I, P24H
B11: L99E (designed binder)
chain: B1 chain with P24H, L99E
B12: A47K (designed binder)
chain: B1 chain with P24H, A47K
B13: L28N (designed binder)
chain: B1 chain with P24H, L28N
B14: E26P (designed binder)
chain: B1 chain with P24H, E26P
B15: E45H (designed binder)
chain: B1 chain with P24H, E45H
B16: S1I (designed binder)
chain: B1 chain with S1I, P24H
B17: A9I (designed binder)
chain: B1 chain with A9I, P24H
B18: Y70Q (designed binder)
chain: B1 chain with P24H, Y70Q
B19: E82D (designed binder)
chain: B1 chain with P24H, E82D
B20: R66P (designed binder)
chain: B1 chain with P24H, R66P
B21: E72K (designed binder)
chain: B1 chain with P24H, E72K
B22: A105K (designed binder)
chain: B1 chain with P24H, A105K
B23: E12Y (designed binder)
chain: B1 chain with E12Y, P24H
B24: E82M (designed binder)
chain: B1 chain with P24H, E82M
B25: E89L (designed binder)
chain: B1 chain with P24H, E89L
B26: E82L (designed binder)
chain: B1 chain with P24H, E82L
B27: K29D (designed binder)
chain: B1 chain with P24H, K29D
B28: V95S (designed binder)
chain: B1 chain with P24H, V95S
B29: A35S (designed binder)
chain: B1 chain with P24H, A35S
B30: V102C (designed binder)
chain: B1 chain with P24H, V102C
B31: E5Q (designed binder)
chain: B1 chain with E5Q, P24H
B32: S77D (designed binder)
chain: B1 chain with P24H, S77D
B33: E104C (designed binder)
chain: B1 chain with P24H, E104C
B34: E4A (designed binder)
chain: B1 chain with E4A, P24H
B35: S1H (designed binder)
chain: B1 chain with S1H, P24H
B36: E83L (designed binder)
chain: B1 chain with P24H, E83L
B37: V74F (designed binder)
chain: B1 chain with P24H, V74F
B38: V95T (designed binder)
chain: B1 chain with P24H, V95T
B39: E60W (designed binder)
chain: B1 chain with P24H, E60W
B40: Y13T (designed binder)
chain: B1 chain with Y13T, P24H
B41: T57K (designed binder)
chain: B1 chain with P24H, T57K
B42: A20H (designed binder)
chain: B1 chain with A20H, P24H
B43: K85I (designed binder)
chain: B1 chain with P24H, K85I
B44: K18C (designed binder)
chain: B1 chain with K18C, P24H
B45: L79A (designed binder)
chain: B1 chain with P24H, L79A
B46: E42F (designed binder)
chain: B1 chain with P24H, E42F
B47: A105H (designed binder)
chain: B1 chain with P24H, A105H
B48: E72V (designed binder)
chain: B1 chain with P24H, E72V
B49: V95F (designed binder)
chain: B1 chain with P24H, V95F
B50: K33V (designed binder)
chain: B1 chain with P24H, K33V
B51: E14M (designed binder)
chain: B1 chain with E14M, P24H
B52: I98Y (designed binder)
chain: B1 chain with P24H, I98Y
B53: E4M (designed binder)
chain: B1 chain with E4M, P24H
B54: Y101T (designed binder)
chain: B1 chain with P24H, Y101T
B55: V6N (designed binder)
chain: B1 chain with V6N, P24H
B56: A67R (designed binder)
chain: B1 chain with P24H, A67R
B57: K29T (designed binder)
chain: B1 chain with P24H, K29T
B58: A51Q (designed binder)
chain: B1 chain with P24H, A51Q
B59: I98S (designed binder)
chain: B1 chain with P24H, I98S

Biological target: T1, TNFR1
Experiment: yeast display SC50

| apparent Kd (screen) | Binder |
| --- | --- |
| 12.5 nM | B1 |
| 4.83 nM | B2 |
| 10.4 nM | B3 |
| 24.4 nM | B4 |
| 1.4 nM | B5 |
| 16.7 nM | B6 |
| 0.446 nM | B7 |
| 18.3 nM | B8 |
| 1.54 nM | B9 |
| 1.86 nM | B10 |
| 12.5 nM | B11 |
| 0.49 nM | B12 |
| 1.16 nM | B13 |
| 22.2 nM | B14 |
| 3.3 nM | B15 |
| 0.79 nM | B16 |
| 0.446 nM | B17 |
| 5.84 nM | B18 |
| 1.05 nM | B19 |
| 0.593 nM | B20 |

| apparent Kd (screen) | Binder |
| --- | --- |
| 9.41 nM | B21 |
| 1.86 nM | B22 |
| 0.593 nM | B23 |
| 0.79 nM | B24 |
| 1.86 nM | B25 |
| 0.718 nM | B26 |
| 0.49 nM | B27 |
| 13.8 nM | B28 |
| 0.79 nM | B29 |
| 1.4 nM | B30 |
| 0.446 nM | B31 |
| 11.4 nM | B32 |
| 1.27 nM | B33 |
| 0.539 nM | B34 |
| 1.4 nM | B35 |
| 1.27 nM | B36 |
| 9.41 nM | B37 |
| 13.8 nM | B38 |
| 0.446 nM | B39 |
| 1.69 nM | B40 |

| apparent Kd (screen) | Binder |
| --- | --- |
| 0.446 nM | B41 |
| 0.446 nM | B42 |
| 0.539 nM | B43 |
| 0.869 nM | B44 |
| 2.73 nM | B45 |
| 12.5 nM | B46 |
| 2.05 nM | B47 |
| 1.27 nM | B48 |
| 13.8 nM | B49 |
| 0.446 nM | B50 |
| 12.5 nM | B51 |
| 5.84 nM | B52 |
| 0.653 nM | B53 |
| 0.49 nM | B54 |
| 2.73 nM | B55 |
| 7.07 nM | B56 |
| 0.593 nM | B57 |
| 0.446 nM | B58 |
| 11.4 nM | B59 |
